Target: acetylcholine receptor
Assay: SPR, AchR immobilised on chip, peptide 10 uM

Row | Binder | Binding affinity (RU)
1 | RRGISR [6mer-1-234] | 142
2 | RRLIYK [6mer-1-248] | 151
3 | KRVIYK [6mer-1-228] | 139
4 | KKLQYK [6mer-1-258] | 137
5 | RKQLQR [6mer-1-262] | 139
6 | RKVLCR [6mer-1-239] | 136
7 | RKWVTR [6mer-1-257] | 124
8 | KKGRLK [6mer-1-266] | 144
9 | KRVRTK [6mer-1-256] | 125
10 | KRQYLK [6mer-1-242] | 148
11 | RRLVSR [6mer-1-246] | 122
12 | KKVRQK [6mer-1-247] | 122
13 | KKWYLR [6mer-1-243] | 136
14 | RRRICK [6mer-1-232] | 146
15 | RRWITR [6mer-1-226] | 128
16 | RRGFRR [6mer-1-245] | 142
17 | KRRYRK [6mer-1-259] | 141
18 | KRQRTK [6mer-1-231] | 136
19 | RRVICR [6mer-1-250] | 142
20 | RRWIRR [6mer-1-252] | 131
21 | RKGYCK [6mer-1-230] | 128
22 | KRRQSK [6mer-1-268] | 144

Row | Binder | Binding affinity (RU)
23 | KKWQSR [6mer-1-233] | 128
24 | KRLVQK [6mer-1-227] | 139
25 | RRRLLR [6mer-1-229] | 153
26 | RKSRYK [6mer-1-237] | 137
27 | RKQRTK [6mer-1-260] | 141
28 | RRQYQR [6mer-1-264] | 128
29 | KRWVTR [6mer-1-261] | 121
30 | KKGQQK [6mer-1-238] | 154
31 | RKGVSR [6mer-1-249] | 142
32 | KKGFQK [6mer-1-255] | 139
33 | RKSLSK [6mer-1-254] | 137
34 | RKSYTK [6mer-1-263] | 146
35 | RRVQLK [6mer-1-253] | 145
36 | RKLICK [6mer-1-1225] | 142
37 | RKLISR [6mer-1-236] | 151
38 | KKRYCR [6mer-1-235] | 148
39 | RRRVQK [6mer-1-244] | 144
40 | KRRLLR [6mer-1-267] | 139
41 | RRSRRR [6mer-1-240] | 148
42 | RKVQSK [6mer-1-251] | 133
43 | RKSVCR [6mer-1-265] | 145
44 | RRLYYK [6mer-1-241] | 148

Target: acetylcholine receptor
Assay: SPR, AchR immobilised on CM5 chip, peptide at 10 uM

Row | Binder | Binding affinity (RU)
45 | KMENR [5mer-857] | 23
46 | KIKKK [5mer-1162] | 15
47 | KDSMK [5mer-852] | 22
48 | KHNAR [5mer-859] | 26
49 | REANR [5mer-863] | 16
50 | KKMNK [5mer-1156] | 13
51 | KYHPR [5mer-864] | 25
52 | KTKIR [5mer-861] | 20
53 | KETWR [5mer-1160] | 14
54 | KCWVR [5mer-1154] | 12
55 | KTWMK [5mer-849] | 15
56 | RNTER [5mer-854] | 21
57 | RMMER [5mer-865] | 21
58 | KKNAK [5mer-862] | 19
59 | RDAPR [5mer-1153] | 27
60 | KFTNR [5mer-1150] | 12
61 | RFMKK [5mer-855] | 18

Row | Binder | Binding affinity (RU)
62 | KETDR [5mer-1149] | 25
63 | RFPWR [5mer-1164] | 33
64 | KPPDR [5mer-856] | 23
65 | KTNAR [5mer-1151] | 26
66 | RIMGR [5mer-858] | 33
67 | KKWKK [5mer-1159] | 17
68 | RCHAK [5mer-860] | 31
69 | RNMNR [5mer-1165] | 21
70 | KENFK [5mer-1152] | 18
71 | KYNPR [5mer-1158] | 23
72 | KTSHR [5mer-1157] | 21
73 | KYDIR [5mer-850] | 13
74 | KCHDR [5mer-1161] | 21
75 | KMCWK [5mer-851] | 19
76 | RYDMK [5mer-1155] | 25
77 | KKSKR [5mer-1163] | 12
78 | RYHIK [5mer-853] | 13
